Legend:
[1] = target: taxol-polymerized microtubules from bovine brain tubulin (bovine (purified from bovine brain)) (UniProt Q6B856)
[2] = target: taxol-polymerized microtubules from bovine brain tubulin (bovine (purified from bovine brain)) (UniProt Q6B856); remark: listed apart in the source
[3] = target: taxol-polymerized microtubules from bovine brain tubulin (bovine (purified from bovine brain)) (UniProt Q6B856); experiment: co-sedimentation; MT pelleting assay with 2 mM AMP-PNP: Kif15 19-375 (1–12 µM) mixed with taxol-polymerized MTs (5 µM), 50 mM PIPES pH 6.9, 20 mM NaCl, 2 mM MgCl2, 1 mM DTT, room temperature 10 min, 100 000g at 25°C for 20 min, SDS–PAGE of supernatants and pellets
[4] = target: taxol-polymerized microtubules from bovine brain tubulin (bovine (purified from bovine brain)) (UniProt Q6B856); experiment: co-sedimentation; MT pelleting assay with 4 mU apyrase ('nucleotide-free' state): Kif15 19-375 (1–12 µM) mixed with taxol-polymerized MTs (5 µM), 50 mM PIPES pH 6.9, 20 mM NaCl, 2 mM MgCl2, 1 mM DTT, room temperature 10 min, 100 000g at 25°C for 20 min, SDS–PAGE of supernatants and pellets

K 0.5,MT of the MT-stimulated ATPase activity (MTs 0 to 10 µM, 1 mM ATP, no KCl, 25°C) [1]: 1.1 µM
MT activation of Mant-ADP release, stopped flow, 25°C, various MT concentrations with chasing Mg2+-ATP (MTs here from pig brain tubulin; preliminary data) [2]: 1000 fold
Kd [3]: 500 nM
stoichiometry N [3]: 1.1
Kd [4]: 400 nM
stoichiometry N [4]: 1.3
B1: Homo sapiens Kif15 motor domain and neck-linker region (Kif15 19-375) (domain or fragment)
chain: QPSNEGDAIKVFVRIRPPAERSGSADGEQNLCLSVLSSTSLRLHSNPEPKTFTFDHVADVDTTQESVFATVAKSIVESCMSGYNGTIFAYGQTGSGKTFTMMGPSESDNFSHNLRGVIPRSFEYLFSLIDREKEKAGAGKSFLCKCSFIEIYNEQIYDLLDSASAGLYLREHIKKGVFVVGAVEQVVTSAAEAYQVLSGGWRNRRVASTSMNRESSRSHAVFTITIESMEKSNEIVNIRTSLLNLVDLAGSERQKDTHAEGMRLKEAGNINRSLSCLGQVITALVDVGNGKQRHVCYRDSKLTFLLRDSLGGNAKTAIIANVHPGSRCFGETLSTLNFAQRAKLIKNKAVVNEDTQG
